Here are results for four molecules from US20120149881A1 (Genentech, published 2012).

Where a chain is given by its changes, count along the chain named.

Assay [1] addresses T1, human IgE CH3-CH4-M1′/Fc fusion protein (human).
T1 construct: also called M1′ (immobilized)
The experiment in a line: SPR Biacore A100, M1′ immobilized. On the technique in general: Surface plasmon resonance follows binding to a sensor surface in real time, without labels.

For assay [2], the target named is T2, M1′ peptide 5 (human).
T2 peptide: RAPDRVLCHSGQQQG
In words: ELISA on coated antigen, relative OD450/650. The protocol: (§1) 15 peptides were generated spanning the sequence surrounding and including human M1′ (Clifford Quan) (FIG. 5A). Peptides were resuspended in either dH20 or 50% DMSO. […] 0.05% Tween-20, 10 ppm Proclin., 0.2% BgG, 0.25% Chaps, 5 mM EDTA, 0.35M NaCl]. […] Plates were then incubated for 2 hours at room temperature. Murine antibody plates were washed 3 times and then anti-mouse IgG1-Biotin (BD Biosciences (A85-1) #553441) was added (1:10,000, 100 μl per well) and incubated for 1 hour at RT. Following 3 washes, SA-HRP (BD Biosciences #554066) was added (1:20,000, 100 μl per well) and incubated for 1 hour. Human IgG1 antibody plates were washed as before and anti-hulgG.Fc-HRP (Jackson ImmunoResearch (#109-036-098)) was added (1:10,000, 100 μl per well) and incubated for 1 hour at RT. Once secondary incubations were complete, plates were washed 6 times and TMB substrate (BD OptEIA #555214) was added (100 μl per well). The substrate-HRP reaction was stopped with 1M H3PO4 after ˜4 minutes. Plates were then read at 450/650. Data was represented as relative OD (OD₄₅₀/CD650).
In general terms: ELISA stands for enzyme-linked immunosorbent assay.

The target in assay [3] is T3, M1′ peptide 4 (human).
T3 peptide: SAQSQRAPDRVLCHS
In words: ELISA on coated antigen, relative OD450/650. On the procedure: as §1

For assay [4], the target named is T4, human IgE with the M1′ sequence (long form of membrane IgE) expressed on transduced BJAB or Daudi cells (human, UniProt P01854 116-546).
T4 construct: Full-length heavy and light chains of the U266 IgE B cell receptor, retrovirally expressed; also called IgE/M1′; IgE-M1′
T4 sequence (P01854 116-546 I515L limits assumed): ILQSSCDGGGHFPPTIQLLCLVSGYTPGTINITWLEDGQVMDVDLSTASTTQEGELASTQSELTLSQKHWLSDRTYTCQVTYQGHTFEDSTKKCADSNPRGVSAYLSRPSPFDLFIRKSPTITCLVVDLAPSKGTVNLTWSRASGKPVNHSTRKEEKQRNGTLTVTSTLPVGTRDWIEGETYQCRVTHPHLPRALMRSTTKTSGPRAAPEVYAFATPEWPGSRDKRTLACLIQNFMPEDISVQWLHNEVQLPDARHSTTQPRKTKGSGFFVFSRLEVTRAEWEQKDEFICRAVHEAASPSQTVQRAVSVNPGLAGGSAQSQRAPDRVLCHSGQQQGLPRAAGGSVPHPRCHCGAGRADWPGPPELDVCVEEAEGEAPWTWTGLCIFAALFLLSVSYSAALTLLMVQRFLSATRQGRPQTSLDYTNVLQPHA
In words: competitive ECL binding on BJAB-IgE/M1′ cells vs biotinylated 26A11 or 47H4, 1st IC50 column.

Assay [5] addresses T4, human IgE with the M1′ sequence (long …). The experiment in a line: Scatchard, iodinated antibody on IgE/M1′ cells.
For assay [6] the target is unchanged. The experiment in a line: Scatchard analysis on cells expressing human IgE/M1′. The protocol:
The BJAB or Daudi cells expressing various forms of IgE with or without M1′ (Human, Rhesus, Cyno) were prepared for binding in cold Binding buffer composed of base media, with 10 mM HEPES pH 7.4, and 2% FBS as well as 40 ug/ml human IgG. Cells are diluted to concentration of 1.7×10⁶ cells/ml, and kept on ice until they are added to the assay. The proteins/antibodies are iodinated with the Iodogen method. Various concentrations of cold protein are prepared in triplicate, using a 1:2 dilution starting with the saturation concentration and ending at a concentration of zero, with a total of 14 concentrations. Hot protein of a single concentration is added to all dilutions compete with the cold protein. Lastly the cells are added to the hot and cold protein mixture, 250,000 cells per sample were used. Assay is kept at 4° C. for 4 hours, shaking. Each sample is then collected and filtered on membrane, washed at least 3 times with binding buffer, allowed to dry and then counted for 1 minute using Perkin Elmer Wizard 1470 Auto Gamma Counter.

Assay [7] concerns the target T5, M1' peptide 3.
T5 construct: see f1
T5 peptide: GLAGGSAQSQRAPDR
In words: ELISA on coated antigen, relative OD450/650. The protocol: as §1

Assay [8] concerns the target T6, M1' peptide 11.
T6 construct: see f1
T6 peptide: CGAGRADWPGPPELD
In words: ELISA on coated antigen, relative OD450/650. The protocol: as §1

Assay [9] concerns the target T7, M1' peptide 14.
T7 construct: see f1
T7 peptide: VCVEEAEGEAPWTWT
In words: ELISA on coated antigen, relative OD450/650. On the procedure: as §1

In assay [10] the target is T8, M1' peptide 1.
T8 peptide: ASPSQTVQRAVSVNP
The experiment in a line: ELISA on coated antigen, relative OD450/650. On the procedure:
as §1

Assay [11] deals with T9, M1' peptide 13.
T9 construct: see f1
T9 peptide: PPELDVCVEEAEGEA
In words: ELISA on coated antigen, relative OD450/650. The protocol:
as §1

In assay [12] the target is T10, M1' peptide 9.
T10 construct: see f1
T10 peptide: GGSVPHPRCHCGAGR
In words: ELISA on coated antigen, relative OD450/650. On the procedure:
as §1

Assay [13] addresses T11, M1' peptide 2.
T11 construct: see f1
T11 peptide: TVQRAVSVNPGLAGG
In words: ELISA on coated antigen, relative OD450/650. The protocol:
as §1

Assay [14] has as its target T12, M1′ peptide 8 (human).
T12 peptide: PRAAGGSVPHPRCH
In words: ELISA on coated antigen, relative OD450/650. On the procedure:
as §1

Assay [15] has as its target T13, M1' peptide 10.
T13 construct: see f1
T13 peptide: HPRCHCGAGRADWPG
The experiment in a line: ELISA on coated antigen, relative OD450/650. The protocol: as §1

Assay [16] deals with T14, M1' peptide 15.
T14 construct: see f1
T14 peptide: AEGEAPWTWTGLCIF
In words: ELISA on coated antigen, relative OD450/650. The protocol: as §1

Assay [17] has as its target T15, M1′ peptide 7 (human).
T15 peptide: GQQQGLPRAAGGSVP
The experiment in a line: ELISA on coated antigen, relative OD450/650. On the procedure:
as §1

Assay [18] addresses T16, M1' peptide 12.
T16 construct: see f1
T16 peptide: ADWPGPPELDVCVEE
In words: ELISA on coated antigen, relative OD450/650. The protocol:
as §1

The target in assay [19] is T17, M1' peptide 6.
T17 construct: see f1
T17 peptide: VLCHSGQQQGLPRAA
In words: ELISA on coated antigen, relative OD450/650. The protocol: as §1

Assay [20] concerns the target T1, human IgE CH3-CH4-M1′/Fc fusion protein. The experiment in a line: SPR Biacore 2000, M1′-Fc immobilized.
Assay [21] concerns the target T18, cyno IgE/M1′ expressed on transduced Daudi cells (human IgE/primate M1′ cassette, cynomolgus) (cynomolgus monkey).
T18 construct: The construct is described as a 'human IgE/primate M1′ cassette'; also called Cyno M1′
T18 chain: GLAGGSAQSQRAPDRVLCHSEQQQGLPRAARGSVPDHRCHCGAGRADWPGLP
In words: Scatchard analysis on cells expressing cyno IgE/M1′.

Assay [22] deals with T19, rhesus IgE/M1′ expressed on transduced Daudi cells (human IgE/primate M1′ cassette, rhesus) (rhesus monkey).
T19 construct: The construct is described as a 'human IgE/primate M1′ cassette'; also called Rhesus M1′
T19 chain: T18 chain with R38H
In words: Scatchard analysis on cells expressing rhesus IgE/M1′.

Assay [23] has as its target T4, human IgE with the M1′ sequence (long …). The experiment in a line: competitive ECL binding on BJAB-IgE/M1′ cells vs biotinylated 26A11 or 47H4, 2nd IC50 column.
The target in assay [24] is T1, human IgE CH3-CH4-M1′/Fc fusion protein. The experiment in a line: SPR Biacore 2000, IgG immobilized, M1′-Fc analyte.

T1 sequence (chain, as listed by the source limits assumed): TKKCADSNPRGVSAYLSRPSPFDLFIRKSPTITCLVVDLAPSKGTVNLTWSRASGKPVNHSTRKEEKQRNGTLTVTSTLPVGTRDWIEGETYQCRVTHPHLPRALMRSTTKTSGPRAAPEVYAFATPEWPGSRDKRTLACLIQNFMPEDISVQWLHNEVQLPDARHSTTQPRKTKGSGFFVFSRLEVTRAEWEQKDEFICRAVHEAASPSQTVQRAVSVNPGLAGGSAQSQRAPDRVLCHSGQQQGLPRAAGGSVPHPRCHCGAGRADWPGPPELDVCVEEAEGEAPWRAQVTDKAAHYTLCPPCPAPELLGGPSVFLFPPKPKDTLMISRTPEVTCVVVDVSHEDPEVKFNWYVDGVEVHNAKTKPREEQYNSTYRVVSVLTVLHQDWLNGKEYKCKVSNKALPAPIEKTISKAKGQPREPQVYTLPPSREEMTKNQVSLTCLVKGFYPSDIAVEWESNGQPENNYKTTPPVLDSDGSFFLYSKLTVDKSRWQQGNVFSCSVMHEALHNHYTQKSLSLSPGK

B1: murine anti-IgE/M1′ antibody 7A6 (antibody, V domains shown)
VH: QVQLQQSGAELVRPGASVTLSCKASGYTFIDYEMHWVKQTPVHGLEWIGAIDPETGTTAYNQKFKGKATLTAAKSSSTAYMELRSLTSEDSAVYYCTRLRPHYDYDNAMDSWGQGTTLTVSS
VL: DIVMSQSPSSLTVSVGEKVTLSCKSSQTLLYSTNQKNYLAWYQQKPGQSPKLLIYWASTRESGVPDRFTGSGSGTDFTLTISSVKAEDLAVYYCQQYYSYPYTFGGGTKVEIKR
notes: mIgG1 hybridoma antibody; also called mu7A6; 7A6 mIgG1
Take B1: the Kd worked out at 4.5 nM in [1], 0.6 nM in [5] and 0.64 nM in assay [6]. Also, the binding result in assay [2] and in assay [3] was “binds” each time. The same molecule had an IC50 in assay [4] of 52 nM.

B2: humanized anti-IgE/M1′ antibody 7A6.v1 (antibody, V domains shown)
VH: EVQLVESGGGLVQPGGSLRLSCAASGYTFIDYEMHWVRQAPGKGLEWVGAIDPETGTTAYNQKFKGRFTISADTSKNTAYLQMNSLRAEDTAVYYCTRLRPHYDYDNAMDSWGQGTLVTVSS
VL: DIQMTQSPSSLSASVGDRVTITCKSSQTLLYSTNQKNYLAWYQQKPGKAPKLLIYWASTRESGVPSRFSGSGSGTDFTLTISSLQPEDFATYYCQQYYSYPYTFGQGTKVEIKR
notes: direct CDR graft, huIgG1; also called 7A6v1 huIgG1; 7A67v1 [sic]
Molecule B2 yielded a Kd in [1] of 15 nM. The binding result in assay [7], in assay [8], in assay [9], in assay [10], in assay [11] and in [12] was “no binding” each time. Besides, the binding result in [2] is “binds”; in [13] it was “no binding”; in assay [3], “binds”; in assay [14] it was “no binding”; in assay [15], “no binding”; in assay [16], “no binding”. Moreover, the binding result in assay [17], in [18] and in assay [19] was “no binding” in each case. The same molecule showed an IC50 in assay [4] of 39 nM.

B3: humanized anti-IgE/M1′ antibody 47H4.v5 (antibody, V domains shown)
VH: EVQLVESGGGLVQPGGSLRLSCAASGFTFSDYGIAWVRQAPGKGLEWVAFISDLAYTIYYADTVTGRFTISRDNSKNTLYLQMNSLRAEDTAVYYCARDNWDAMDYWGQGTLVTVSS
VL: DIQMTQSPSSLSASVGDRVTITCRSSQSLVHNNANTYLHWYQQKPGKAPKLLIYKVSNRFSGVPSRFSGSGSGTDFTLTISSLQPEDFATYYCSQNTLVPWTFGQGTKVEIKR
notes: huIgG1; also called 47H4v5 huIgG1; 47H5 v.5
With B3, the Kd in assay [20] amounted to 23 nM; in assay [21], 2.5 nM; in assay [22], 1.3 nM; in [6] it was 1.5 nM. The binding result in [7], in assay [8], in assay [9], in assay [10], in assay [11] and in assay [12] was “no binding” in each case. The binding result is on record as “no binding” in [2]; “no binding” in assay [13]; “binds” in assay [3]; “no binding” in assay [14]; “no binding” in [15]; “no binding” in [16]. In addition, the binding result in [17], in assay [18] and in assay [19] was “no binding” each time. Further, the IC50 in assay [23] was found to be 60 nM.

B4: humanized anti-IgE/M1′ antibody 26A11.v6 (antibody, V domains shown)
VH: EVQLVESGGGLVQPGGSLRLSCAASGYTFTDYYIMWVRQAPGKGLEWVGDINPNNYDTSYNQKFKGRFTISADTSKNTAYLQMNSLRAEDTAVYYCASKAYWGQGTLVTVSS
VL: DIQMTQSPSSLSASVGDRVTITCRSSQDISNYLNWYQQKPGKAPKLLIYSTSRLHSGVPSRFSGSGSGTDFTLTISSLQPEDFATYYCQQGHTLPWTFGQGTKVEIKR
notes: huIgG1; also called 26A11v6 huIgG1
Regarding B4, the values for the Kd in assay [24], in assay [1] and in assay [6] were 8.3 nM, 2.6 nM and 1.85 nM, respectively. Moreover, the binding result in assay [7], in assay [8], in assay [9], in assay [10], in assay [11] and in [12] was “no binding” in each case. Besides, the binding result in assay [2] is on record as “no binding”; in assay [13], “no binding”; in [3] it was “no binding”; in assay [14] it was “binds”; in [15], “no binding”; in assay [16], “no binding”. Also, the results for the binding result in assay [17], in [18] and in assay [19] were “binds”, “no binding” and “no binding”, respectively. Further, the IC50 in assay [23] came to 23 nM; in assay [4], 11 nM.

In general, Kd refers to the equilibrium constant for the complex coming apart. High values mean a looser complex, low ones a tighter complex. A word on the IC50: it is the point on the concentration scale where inhibition reaches its midpoint. The low end stands for inhibition by little substance, the high end for a need for much substance.
